Experimental data taken from paper PMC8085152 (Journal of molecular biology, 2021).

How the values were obtained:
[1] = biological target: α-synuclein (αS) monomers, full-length 1-140 (UniProt P37840); assay: co-sedimentation
[2] = biological target: TDP-43 PrLD sonicated fibrils (UniProt Q13148 267-414); assay: ThT fluorescence seeding kinetics

Molecule	stoichiometry N (TDP-43 PrLD per αS) [1]	binding result [2]
TDP-43 PrLD (residues 267-414) monomers, hexahistidine-TEV fusion construct (from UniProt Q13148 267-414) (domain or fragment)	1.2	–
TDP-43 PrLD (residues 267-414) monomers, hexahistidine-TEV fusion construct (domain or fragment, UniProt Q13148 267-414, looked up) NRQLERSGRFGGNPGGFGNQGGFGNSRGGGAGLGNNQGSNMGGGMNFGAFSINPAMMAAAQAALQSSWGMMGMLASQQNQSGPSGNNQNQGNMQREPNQAFGSGNNSYSGSNSGAAIGWGSASNAGSGSGFNGGFGSSMDSKSSGWGM	–	binds
